Results reported in paper PMC4971505 (2016).

How the values were obtained:
[1] = molecular target: M3 muscarinic acetylcholine receptor (Homo sapiens, UniProt P20309); assay: 3H-NMS radioligand pseudocompetition binding (allosteric model)
[2] = molecular target: T1, M1 muscarinic acetylcholine receptor (Homo sapiens, UniProt P11229); assay: as above
T1 chain: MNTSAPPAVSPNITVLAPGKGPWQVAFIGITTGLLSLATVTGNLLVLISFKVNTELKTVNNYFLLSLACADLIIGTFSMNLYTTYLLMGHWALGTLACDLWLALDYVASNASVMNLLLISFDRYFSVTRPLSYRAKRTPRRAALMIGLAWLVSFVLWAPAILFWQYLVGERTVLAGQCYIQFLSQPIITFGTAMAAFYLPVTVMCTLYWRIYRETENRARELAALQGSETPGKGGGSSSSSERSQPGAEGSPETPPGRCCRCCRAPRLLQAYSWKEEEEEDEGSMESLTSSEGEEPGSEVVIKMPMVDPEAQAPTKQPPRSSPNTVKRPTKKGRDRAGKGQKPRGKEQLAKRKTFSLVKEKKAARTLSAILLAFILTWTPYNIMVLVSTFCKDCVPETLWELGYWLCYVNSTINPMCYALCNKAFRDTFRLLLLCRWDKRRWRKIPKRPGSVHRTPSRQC

Sequence of M3 muscarinic acetylcholine receptor (P20309 whole entry): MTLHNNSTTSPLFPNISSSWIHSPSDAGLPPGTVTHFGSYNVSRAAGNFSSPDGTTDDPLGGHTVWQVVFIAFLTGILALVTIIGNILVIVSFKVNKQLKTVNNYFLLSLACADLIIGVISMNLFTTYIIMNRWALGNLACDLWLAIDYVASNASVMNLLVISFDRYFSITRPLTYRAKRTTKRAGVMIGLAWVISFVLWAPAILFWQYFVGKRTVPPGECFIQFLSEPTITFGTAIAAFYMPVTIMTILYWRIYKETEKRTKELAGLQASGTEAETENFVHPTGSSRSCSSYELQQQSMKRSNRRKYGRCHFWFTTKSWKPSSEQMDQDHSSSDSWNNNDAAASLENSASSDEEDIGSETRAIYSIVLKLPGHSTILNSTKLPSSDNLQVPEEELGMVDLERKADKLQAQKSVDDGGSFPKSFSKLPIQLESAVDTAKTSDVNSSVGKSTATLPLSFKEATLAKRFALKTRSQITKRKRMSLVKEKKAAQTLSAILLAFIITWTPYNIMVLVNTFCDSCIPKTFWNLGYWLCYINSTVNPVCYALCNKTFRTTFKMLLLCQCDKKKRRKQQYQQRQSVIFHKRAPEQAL

Kd [1]: 144 nM
Kd [2]: 231 nM
B1: SLURP-2 (protein)
chain: IWCHQCTGFGGCSHGSRCLRDSTHCVTTATRVLSNTEDLPLVTKMCHIGCPDIPSLGLGPYVSIACCQTSLCNHD
